Drawing on article PMC7327521 (Journal of Molecular Biology, 2020), this text covers Kd for eight molecules.

Square brackets hold non-standard residues; d marks the D form. Ends that are not written are not given here. pY = N[C@@H](Cc1ccc(OP(=O)(O)O)cc1)C(=O)O; pT = C[C@@H](OP(=O)(O)O)[C@H](N)C(=O)O; pS = N[C@@H](COP(=O)(O)O)C(=O)O

The target in the assay is T1, tandem SH2 domain of C. glabrata Spt6 (Spt6-tSH2) (C. glabrata, UniProt Q6FLB1 1250-1444).
T1 sequence (looked up): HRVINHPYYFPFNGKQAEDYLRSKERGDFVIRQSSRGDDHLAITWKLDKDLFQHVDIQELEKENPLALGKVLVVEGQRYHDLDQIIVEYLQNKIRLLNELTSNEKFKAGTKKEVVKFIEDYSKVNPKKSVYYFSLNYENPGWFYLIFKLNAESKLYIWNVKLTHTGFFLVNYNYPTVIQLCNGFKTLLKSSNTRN
In words: fluorescence polarisation. A general note: Polarisation of emitted light reports the rotation of a fluorescent probe.

A word on the Kd: it is the equilibrium constant for the complex coming apart. On to {5,6‑FAM}-PSYSP[pT]SPSYSP[pT]SPS [(pT4-CTD)2], for which binding was put at a Kd of 7.2 µM. With {5,6‑FAM}-PSY[pS]P[pT]SPSYSPTSPS [PS(YpSPpTSPS)(YSPTSPS)] the figure was 5.7 µM; with {5,6‑FAM}-PS[pY][pS]PTSPS[pY][pS]PTSPS [(pY1pS2-CTD)2], 0.3 µM; with DDDEDGYNPYTL [Nrd1 Interaction Motif (NIM) peptide from Trf4], 3.3 µM. As for {5,6‑FAM}-PS[pY]SPTSPS [(pY1-CTD)1], the dissociation constant Kd is 38.7 µM. With {5,6‑FAM}-PSYSPTSPS[pY]SPTSPS [PS(YSPTSPS)(pYSPTSPS)] the figure was 36.8 µM; with {5,6‑FAM}-PS[pY]SPT[pS]PS[pY]SPT[pS]PS [(pY1pS5-CTD)2], 0.3 µM; with {5,6‑FAM}-PS[pY]SPTSPSYSPTSPS [PS(pYSPTSPS)(YSPTSPS)], 45.4 µM.
